According to US20130052638, “Methods for detecting DNA-binding proteins” (Agency for Science, Technology and Research, published 2013):

B1: scrDNA competitor (free) (dsDNA)
DNA 1: GTCCAAAGTCAATCGCCAGCACGATGATCAAAGT
DNA 2: ACTTTGATCATCGTGCTGGCGATTGACTTTGGAC
B2: wtERE competitor (free) (dsDNA)
DNA 1: GTCCAAAGTCAGGTCACAGTGACCTGATCAAAGT
DNA 2: ACTTTGATCAGGTCACTGTGACCTGACTTTGGAC

Tests used:
[1] = target: T1, Estrogen receptor beta (ERβ) (UniProt Q92731 Q92731:1-530); experiment: competition; free competitor at 4:1 over ERβ, 360 nM ERβ, 56 mM KCl, 5 min; attributed to non-specific binding; details: chain copies: 2
T1 sequence (Q92731 whole entry, one chain of several): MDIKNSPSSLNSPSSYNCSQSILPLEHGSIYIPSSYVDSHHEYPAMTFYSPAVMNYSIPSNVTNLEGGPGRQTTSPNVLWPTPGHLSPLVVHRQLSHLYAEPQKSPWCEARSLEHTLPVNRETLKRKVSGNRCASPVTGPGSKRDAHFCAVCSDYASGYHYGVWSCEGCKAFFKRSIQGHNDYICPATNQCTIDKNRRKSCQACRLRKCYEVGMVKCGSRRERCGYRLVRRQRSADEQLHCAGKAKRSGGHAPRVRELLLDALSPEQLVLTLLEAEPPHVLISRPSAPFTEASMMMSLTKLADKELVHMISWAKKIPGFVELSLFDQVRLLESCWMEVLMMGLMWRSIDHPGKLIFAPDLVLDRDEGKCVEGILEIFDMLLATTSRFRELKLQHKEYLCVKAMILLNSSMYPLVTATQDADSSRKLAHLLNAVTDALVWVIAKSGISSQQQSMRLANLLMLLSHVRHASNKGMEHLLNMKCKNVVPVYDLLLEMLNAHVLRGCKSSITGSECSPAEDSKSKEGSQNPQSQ
Protocol: (§1) In this study, excess unmodified DNA competitor (i.e., wtERE and scrDNA, are used as strong and weak competitors, respectively) was pre-incubated with the ERβ at room temperature for 20 minutes to allow for complex formation (molar ratio of ERβ:dsDNA is 1:4), followed by the addition to the complementary mixture of v1-v2-AuNPs in 56 mM KCl, with final ERβ concentration of 360 nM. In the presence of strong competitor (wtERE), limited amount of ERβ bound to the ERE anchored on the AuNPs surface, leading to extensive particle aggregation in salt solution. […]
(§2) The aggregation state of the AuNPs was quantified using UV-Vis absorption spectrum as indicated by the shift of LSPR peak at 526 nm wavelength to a longer wavelength (e.g. 650 nm). The UV-Vis absorbance ratio at 650 nm to that at 526 nm, i.e., A650/A526 is indicative of the particle aggregation degree where a higher ratio is directly related to a larger extent of aggregation. In this study, the deviation percentage (i.e., [(X−Y)/Y]*100%) was calculated based on the difference in aggregation ratio of AuNP samples (measure as A650/A526) with competitors (denoted as X) relative to that without competitor (denoted as Y) at 5 minutes after mixing in the 56 mM KCl-containing protein binding buffer. A 9.0% of deviation was recorded for the scrambled DNA sequence (scrDNA). […]

[2] = target: T1, Estrogen receptor beta (ERβ); experiment: competition; free competitor at 4:1 over ERβ, 360 nM ERβ, 56 mM KCl, 5 min; strong competitor; details: chain copies: 2
Protocol: as §1, §2

| Binder | binding signal [1] | binding signal [2] |
| --- | --- | --- |
| B1 | 9 % deviation of aggregation ratio | – |
| B2 | – | 35 % deviation of aggregation ratio |
